Binding result and Relative binding data for 23 molecules are collected here from patent US20230054634A1 (INSTYTUT BIOLOGII DO WIADCZALNEJ IM MARCELEGO NENCKIEGO …, published 2023).

B1: G7 C-terminal (peptide)
peptide: Biotin-DFQYQLD
notes: also called C-terminal (DFQYQLD); short variant of G7
B2: G7 N-terminal (peptide)
peptide: Biotin-YQKLSYL
notes: also called N-terminal (YQKLSYL); short variant of G7
B3: G7 central portion (peptide)
peptide: Biotin-LSYLDFQ
notes: also called central (LSYLDFQ); short variant of G7
B4: G7 variant (A12) (peptide)
peptide: YQKLSYLDFQYALD
notes: ELISA as for the biotin-labelled peptides; also called Al2
B5: G7 variant (A11) (peptide)
peptide: YQKLSYLDFQAQLD
notes: ELISA as for the biotin-labelled peptides
B6: G7 variant (A13) (peptide)
peptide: YQKLSYLDFQYQAD
notes: ELISA as for the biotin-labelled peptides; also called Al3
B7: G7 variant (A14) (peptide)
peptide: YQKLSYLDFQYQLA
notes: as for B5
B8: G7 variant (A16) (peptide)
peptide: KQPRTYQKLSYLDFQYQLD
notes: ELISA as for the biotin-labelled peptides; also called W2
B9: G7K2 (peptide)
peptide: YKKLSYLDFQYQLD
notes: also called G7 variant with lysine in position 2

Where no end group is shown, it is not given here. The star is where a group is joined. Biotin = O=C1N[C@H]2[C@H](CS[C@H]2CCCCC(=O)*)N1

T1 sequence (P04141 18-144): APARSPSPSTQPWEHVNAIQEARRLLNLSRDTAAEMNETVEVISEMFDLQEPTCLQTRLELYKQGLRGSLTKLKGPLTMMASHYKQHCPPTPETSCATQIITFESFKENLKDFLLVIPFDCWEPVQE

The first test concerns the target T1, recombinant human GM-CSF protein, Myc-tagged/His-tagged (human, UniProt P04141 18-144).
T1 construct: also called Granulocyte Macrophage Colony Stimulating Factor; CSF2; not shown: Myc tag and His tag from the expression vector
Briefly: ELISA, GM-CSF coated, biotin-labelled peptide. As to the method:
(§1) Next, unbound proteins were washed out, then the wells were blocked with 5% BSA (bovine serum albumin) in saline and peptides labeled with N-terminal biotin (purchased from GenScript) were added. […] HRP catalyzes the conversion of chromogenic substrates into colored products. The amount of bound peptide was proportional to the amount of the colored product, and it was measured using a spectrophotometer.
(SEQ ID NO: 1). […] These peptides, labeled with a N-terminal biotin, were purchased from GenScript.
For orientation: In an ELISA, binding on a coated surface is turned into a signal by an enzyme label.
With B1, the binding result is recorded as “no binding”.

As for B2, the binding result is “no binding”.

Regarding B3, the binding result is recorded as “no binding”.

For another test, the target named is T1, recombinant human GM-CSF protein, …. Briefly: ELISA, GM-CSF coated. As to the method: as §1
As for YQKLSYLDFAYQLD [G7 variant (A10)], the binding result was “binds”.

For the molecule B4, the binding result is “binds”.

Regarding B5, the binding result was “binds”.

As to B6, the binding result is recorded as “binds”.

With B7, the binding result is reported as “binds”.

B8: the binding result is on record as “binds”.

The target is the same in another test. Briefly: ELISA on GM-CSF, relative to G7.
On to YQKLSYLDFQKQLD [G7K11], for which the Relative binding came to 108.

On to YQKLSYLDFQYQKD [G7K13], for which the Relative binding was 108.

For the molecule B9, the Relative binding is 2.

Take KYQKLSYLDFQYQLD (also called G7K-1 variant) [G7K-1]: the Relative binding amounted to 95.

For YQKLSYLDFQYQKDK [G7K15], the Relative binding stood at 60.

For a further test the target is unchanged. Briefly: ELISA, GM-CSF coated, biotin-labelled peptide, anti-biotin detection. As for the experimental part:
as §1
On to Biotin-NHEVEDEIIWEEFT [G25 peptide], for which the binding result is recorded as “binds”.

In the case of Biotin-HSVKIRAADVRILN [G14 peptide], the binding result is given as “binds”.

The next test shares this target. Briefly: SPR (BIAcore 3000), GM-CSF immobilised, peptide injected. A general note: In SPR one partner is held on a chip, and binding of the other changes the refractive index at the surface.
Regarding VLGFLFKRFLRIQR [G21 peptide], the binding result was “binds”.

In the case of NTTHCLVRWKQPRT [G5 peptide], the binding result is “binds”.

As to RWKQPRTYQKLSYL [G6 peptide], the binding result is given as “binds”.

In the case of Biotin-ADVRILNWSSWSEA [G15 peptide], the binding result is recorded as “binds”.

In the case of Biotin-WSSWSEAIEFGSDD [G16 peptide], the binding result was “binds”.

Biotin-IERFNPPSNVTVRC [G3 peptide]: the binding result is “binds”.

On to RFLRIQRLFPPVPQ [G22 peptide], for which the binding result was “binds”.
